Data reported in patent US20100203582.

Target: T1, peptide SAVLQMGFRK, Substrate (7)
T1 chain: SAVLQMGFRK

B1: wild-type severe acute respiratory syndrome-associated coronavirus 3C-like protease (SARS-CoV 3CL^pro) (protein)
chain: SGFRKMAFPSGKVEGCMVQVTCGTTTLNGLWLDDTVYCPRHVICTAEDMLNPNYEDLLIRKSNHSFLVQAGNVQLRVIGHSMQNCLLRLKVDTSNPKTPKYKFVRIQPGQTFSVLACYNGSPSGVYQCAMRPNHTIKGSFLNGSCGSVGFNIDYDCVSFCYMHHMELPTGVHAGTDLEGKFYGPFVDRQTAQAAGTDTTITLNVLAWLYAAVINGDRWFLNRFTTTLNDFNLVAMKYNYEPLTQDHVDILGPLSAQTGIAVLDMCAALKELLQNGMNGRTILGSTILEDEFTPFDVVRQCSGVTFQ
Km: Km is 76.6±3.5 µM
kcat: kcat is 1.6±0.2 min^-1
kcat/Km: kcat/Km=0.02 µM^-1min^-1
